Experimental data: paper PMC7065885

Columns and labels:
[1] = target: human CD11b I-domain (human); experiment: SPR
[2] = target: murine CD11b I-domain (mouse); experiment: SPR
Sequence of murine CD11b I-domain (mouse) (P05555 17-1153): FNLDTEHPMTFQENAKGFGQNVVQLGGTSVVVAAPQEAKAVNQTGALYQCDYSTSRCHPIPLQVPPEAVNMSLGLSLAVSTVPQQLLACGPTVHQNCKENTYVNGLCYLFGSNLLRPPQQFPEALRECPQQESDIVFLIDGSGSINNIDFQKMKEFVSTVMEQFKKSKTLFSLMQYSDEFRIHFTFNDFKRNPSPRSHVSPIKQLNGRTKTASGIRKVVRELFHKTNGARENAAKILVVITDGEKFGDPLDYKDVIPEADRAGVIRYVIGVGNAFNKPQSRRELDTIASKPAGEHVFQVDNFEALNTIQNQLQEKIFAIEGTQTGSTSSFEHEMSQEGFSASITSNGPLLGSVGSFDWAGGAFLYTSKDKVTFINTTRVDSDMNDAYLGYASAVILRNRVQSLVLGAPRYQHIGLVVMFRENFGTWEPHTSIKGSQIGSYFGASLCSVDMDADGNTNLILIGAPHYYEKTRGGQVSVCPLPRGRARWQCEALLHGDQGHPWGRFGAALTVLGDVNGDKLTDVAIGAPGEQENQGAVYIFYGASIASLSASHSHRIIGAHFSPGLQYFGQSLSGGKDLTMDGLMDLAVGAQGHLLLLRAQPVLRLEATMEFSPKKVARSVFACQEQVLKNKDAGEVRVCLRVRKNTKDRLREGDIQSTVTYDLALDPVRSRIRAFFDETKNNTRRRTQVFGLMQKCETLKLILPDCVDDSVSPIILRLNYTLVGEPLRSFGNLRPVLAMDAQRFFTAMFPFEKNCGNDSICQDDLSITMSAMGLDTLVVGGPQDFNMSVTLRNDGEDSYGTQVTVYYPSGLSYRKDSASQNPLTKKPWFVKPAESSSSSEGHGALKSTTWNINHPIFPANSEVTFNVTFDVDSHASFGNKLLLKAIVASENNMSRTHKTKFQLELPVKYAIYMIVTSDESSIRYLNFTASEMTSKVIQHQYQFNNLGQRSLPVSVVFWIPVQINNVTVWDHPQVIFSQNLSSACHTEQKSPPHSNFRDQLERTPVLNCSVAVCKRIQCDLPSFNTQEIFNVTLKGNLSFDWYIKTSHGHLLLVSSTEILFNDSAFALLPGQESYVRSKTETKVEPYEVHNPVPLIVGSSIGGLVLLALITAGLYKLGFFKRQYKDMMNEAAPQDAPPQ

Work on LukAB (complex) yielded a Kd [1] of 0.0393 µM and a Kd [2] of 247 µM.
